Paper PMC9482650, “Quantitative fragmentomics allow affinity mapping of interactomes” (Nature Communications, 2022)

T1: PDZRN3_1, Q9UPQ7
T1 sequence (Q9UPQ7 244-349, limits assumed, looked up): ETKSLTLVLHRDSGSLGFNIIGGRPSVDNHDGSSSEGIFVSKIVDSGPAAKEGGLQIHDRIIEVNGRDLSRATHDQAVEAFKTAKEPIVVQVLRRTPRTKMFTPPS

T2: SIPA1L2, Q9P2F8
T2 sequence (Q9P2F8 945-1036, limits assumed, looked up): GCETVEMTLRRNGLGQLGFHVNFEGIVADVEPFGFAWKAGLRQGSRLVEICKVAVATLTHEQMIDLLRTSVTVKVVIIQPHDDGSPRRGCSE

T3: SNTA1, Q13424
T3 sequence (Q13424 82-180, limits assumed, looked up): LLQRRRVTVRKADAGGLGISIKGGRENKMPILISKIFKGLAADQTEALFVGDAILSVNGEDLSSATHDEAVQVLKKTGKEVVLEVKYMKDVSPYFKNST

T4: GRIP1_3, Q9Y3R0
T4 sequence (Q9Y3R0 247-346, limits assumed, looked up): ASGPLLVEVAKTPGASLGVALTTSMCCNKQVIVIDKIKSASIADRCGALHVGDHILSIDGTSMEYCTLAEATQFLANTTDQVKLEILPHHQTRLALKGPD

T5: LIN7B, Q9HAP6
T5 sequence (Q9HAP6 88-185, limits assumed, looked up): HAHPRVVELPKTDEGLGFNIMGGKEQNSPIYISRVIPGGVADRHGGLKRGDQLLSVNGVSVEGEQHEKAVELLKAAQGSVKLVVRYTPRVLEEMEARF

T6: GRIP1_4, Q9Y3R0
T6 sequence (Q9Y3R0 467-571, limits assumed, looked up): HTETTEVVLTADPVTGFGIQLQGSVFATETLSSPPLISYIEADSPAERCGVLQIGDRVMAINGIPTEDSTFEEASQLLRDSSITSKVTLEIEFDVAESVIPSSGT

T7: DFNB31_1, Q9P202
T7 sequence (Q9P202 135-233, limits assumed, looked up): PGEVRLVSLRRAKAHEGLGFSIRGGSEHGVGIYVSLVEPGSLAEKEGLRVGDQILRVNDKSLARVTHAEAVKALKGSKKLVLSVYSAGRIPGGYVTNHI

T8: DFNB31_3, Q9P202
T8 sequence (Q9P202 811-907, limits assumed, looked up): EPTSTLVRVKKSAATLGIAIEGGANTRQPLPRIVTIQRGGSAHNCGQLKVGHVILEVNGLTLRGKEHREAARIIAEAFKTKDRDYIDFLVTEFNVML

T9: DLG3_3, Q92796
T9 sequence (Q92796 374-475, limits assumed, looked up): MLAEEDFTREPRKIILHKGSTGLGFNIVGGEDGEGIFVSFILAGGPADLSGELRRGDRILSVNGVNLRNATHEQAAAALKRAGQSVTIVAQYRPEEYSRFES

T10: MPP7, Q5T2T1
T10 sequence (Q5T2T1 134-230, limits assumed, looked up): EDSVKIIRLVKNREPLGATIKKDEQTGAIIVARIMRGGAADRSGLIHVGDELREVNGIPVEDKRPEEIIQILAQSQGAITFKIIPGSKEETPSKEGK

T11: LIN7C, Q9NUP9
T11 sequence (Q9NUP9 88-185, limits assumed, looked up): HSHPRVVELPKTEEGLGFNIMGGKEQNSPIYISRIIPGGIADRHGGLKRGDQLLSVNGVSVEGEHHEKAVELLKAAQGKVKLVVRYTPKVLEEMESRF

T12: HTRA3, P83110
T12 sequence (P83110 354-453, limits assumed, looked up): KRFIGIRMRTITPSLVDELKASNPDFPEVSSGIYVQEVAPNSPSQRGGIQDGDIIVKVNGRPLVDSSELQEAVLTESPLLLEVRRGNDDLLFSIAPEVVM

T13: ARHGEF11, O15085
T13 sequence (O15085 42-136, limits assumed, looked up): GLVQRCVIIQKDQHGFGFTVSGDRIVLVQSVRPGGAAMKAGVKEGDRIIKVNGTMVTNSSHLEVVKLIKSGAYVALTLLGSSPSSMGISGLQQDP


Tests used:
Experiment in all cases: holdup assay
Design in all cases: key: below the threshold = too weak to quantify, mostly under pKd 3.1 to 4
Settings in all cases: plain residues with an end cap or a label only (N-terminal biotin on a linker: ado-ado)
GIPC2, Q8TF65 = molecular target: GIPC2, Q8TF65
MAGI2_4, Q86UL8 = molecular target: MAGI2_4, Q86UL8
PDZRN3_1, Q9UPQ7 = molecular target: T1, PDZRN3_1, Q9UPQ7
SIPA1L2, Q9P2F8 = molecular target: T2, SIPA1L2, Q9P2F8
GRID2IP_1, A4D2P6 = molecular target: GRID2IP_1, A4D2P6
SNTA1, Q13424 = molecular target: T3, SNTA1, Q13424
GRIP2_5, Q9C0E4 = molecular target: GRIP2_5, Q9C0E4
FRMPD4, Q14CM0 = molecular target: FRMPD4, Q14CM0
GRIP1_3, Q9Y3R0 = molecular target: T4, GRIP1_3, Q9Y3R0
LIN7B, Q9HAP6 = molecular target: T5, LIN7B, Q9HAP6
GRIP1_4, Q9Y3R0 = molecular target: T6, GRIP1_4, Q9Y3R0
DFNB31_1, Q9P202 = molecular target: T7, DFNB31_1, Q9P202
NHERF4_2, Q86UT5 = molecular target: NHERF4_2, Q86UT5
DFNB31_3, Q9P202 = molecular target: T8, DFNB31_3, Q9P202
DLG3_3, Q92796 = molecular target: T9, DLG3_3, Q92796
Inadl_2, Q8NI35 = molecular target: Inadl_2, Q8NI35
MPP7, Q5T2T1 = molecular target: T10, MPP7, Q5T2T1
LIN7C, Q9NUP9 = molecular target: T11, LIN7C, Q9NUP9
HTRA3, P83110 = molecular target: T12, HTRA3, P83110
CASK, O14936 = molecular target: CASK, O14936
DLG4_2, P78352 = molecular target: DLG4_2, P78352
GORASP2, Q9H8Y8 = molecular target: GORASP2, Q9H8Y8
GORASP1, Q9BQQ3 = molecular target: GORASP1, Q9BQQ3
ARHGEF11, O15085 = molecular target: T13, ARHGEF11, O15085
GOPC, Q9HD26 = molecular target: GOPC, Q9HD26

Sequence of NHERF4_2, Q86UT5 (Q86UT5 220-308): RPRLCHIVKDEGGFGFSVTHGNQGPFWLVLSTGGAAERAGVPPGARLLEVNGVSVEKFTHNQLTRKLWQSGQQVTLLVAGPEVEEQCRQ
Sequence of GRIP2_5, Q9C0E4 (Q9C0E4 544-642): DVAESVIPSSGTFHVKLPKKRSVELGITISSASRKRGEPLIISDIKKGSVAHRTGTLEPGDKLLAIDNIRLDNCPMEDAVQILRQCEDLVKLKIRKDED
Sequence of Inadl_2, Q8NI35 (Q8NI35 238-335): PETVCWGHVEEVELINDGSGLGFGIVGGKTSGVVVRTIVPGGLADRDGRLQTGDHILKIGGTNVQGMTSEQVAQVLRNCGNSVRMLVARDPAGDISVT
Sequence of GIPC2, Q8TF65 (Q8TF65 112-203): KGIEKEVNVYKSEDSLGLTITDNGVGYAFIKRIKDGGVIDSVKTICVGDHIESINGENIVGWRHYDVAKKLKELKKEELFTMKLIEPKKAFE
Sequence of MAGI2_4, Q86UL8 (Q86UL8 772-865): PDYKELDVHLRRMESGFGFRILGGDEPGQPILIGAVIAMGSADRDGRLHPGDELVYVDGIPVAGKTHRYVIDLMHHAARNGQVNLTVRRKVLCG
Sequence of DLG4_2, P78352 (P78352 155-259): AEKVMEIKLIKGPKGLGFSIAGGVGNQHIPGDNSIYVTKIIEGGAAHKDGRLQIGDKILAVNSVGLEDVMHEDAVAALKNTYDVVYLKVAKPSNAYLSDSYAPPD
Sequence of FRMPD4, Q14CM0 (Q14CM0 67-160): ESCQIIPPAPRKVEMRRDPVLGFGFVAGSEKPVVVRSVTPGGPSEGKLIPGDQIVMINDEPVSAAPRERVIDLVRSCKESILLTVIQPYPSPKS
Sequence of CASK, O14936 (O14936 487-570): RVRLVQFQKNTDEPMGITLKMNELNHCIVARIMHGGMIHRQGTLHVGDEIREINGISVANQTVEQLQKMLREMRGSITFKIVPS
Sequence of GRID2IP_1, A4D2P6 (A4D2P6 1-87): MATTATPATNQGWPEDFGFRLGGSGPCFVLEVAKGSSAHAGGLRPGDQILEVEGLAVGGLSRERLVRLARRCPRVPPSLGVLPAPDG
Sequence of GORASP1, Q9BQQ3 (Q9BQQ3 1-208): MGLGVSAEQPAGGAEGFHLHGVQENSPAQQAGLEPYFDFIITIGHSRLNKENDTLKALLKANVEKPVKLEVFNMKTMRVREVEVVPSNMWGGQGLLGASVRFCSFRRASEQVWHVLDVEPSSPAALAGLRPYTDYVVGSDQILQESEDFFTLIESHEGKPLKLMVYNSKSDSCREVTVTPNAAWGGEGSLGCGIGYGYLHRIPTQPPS

| Binder | pKd (GIPC2, Q8TF65) | pKd (MAGI2_4, Q86UL8) | pKd (PDZRN3_1, Q9UPQ7) | pKd (SIPA1L2, Q9P2F8) | pKd (GRID2IP_1, A4D2P6) | pKd (SNTA1, Q13424) | pKd (GRIP2_5, Q9C0E4) | pKd (FRMPD4, Q14CM0) | pKd (GRIP1_3, Q9Y3R0) | pKd (LIN7B, Q9HAP6) | pKd (GRIP1_4, Q9Y3R0) | pKd (DFNB31_1, Q9P202) | pKd (NHERF4_2, Q86UT5) | pKd (DFNB31_3, Q9P202) | pKd (DLG3_3, Q92796) | pKd (Inadl_2, Q8NI35) | pKd (MPP7, Q5T2T1) | pKd (LIN7C, Q9NUP9) | pKd (HTRA3, P83110) | pKd (CASK, O14936) | also measured |
| --- | --- | --- | --- | --- | --- | --- | --- | --- | --- | --- | --- | --- | --- | --- | --- | --- | --- | --- | --- | --- | --- |
| STYCDYTIEI [FAM71C, Q8NEG0] | 3.49 | below the threshold | below the threshold | below the threshold | below the threshold | below the threshold | below the threshold | below the threshold | below the threshold | below the threshold | below the threshold | below the threshold | 3.51 | 3.86 | below the threshold | 3.51 | 4.6 | below the threshold | 4.08 | 3.67 | pKd (DLG4_2, P78352): below the threshold; pKd (GORASP2, Q9H8Y8): 4.41; pKd (GORASP1, Q9BQQ3): 4.72; pKd (ARHGEF11, O15085): 4; pKd (GOPC, Q9HD26): below the threshold |
| NISARRFTLC [FAM167B, Q9BTA0] | below the threshold | 3.63 | below the threshold | 3.73 | below the threshold | below the threshold | below the threshold | below the threshold | below the threshold | 4.08 | below the threshold | below the threshold | below the threshold | 3.99 | 4.25 | below the threshold | below the threshold | below the threshold | 4.54 | below the threshold | pKd (DLG4_2, P78352): 4.13; pKd (GORASP2, Q9H8Y8): 3.9; pKd (GORASP1, Q9BQQ3): 3.9; pKd (ARHGEF11, O15085): 3.86; pKd (GOPC, Q9HD26): below the threshold |
| RSPVATATSC [DUSP5, Q16690] | 3.6 | below the threshold | below the threshold | below the threshold | below the threshold | below the threshold | below the threshold | below the threshold | below the threshold | 3.68 | below the threshold | below the threshold | below the threshold | below the threshold | below the threshold | below the threshold | below the threshold | below the threshold | 3.89 | below the threshold | pKd (DLG4_2, P78352): below the threshold; pKd (GORASP2, Q9H8Y8): below the threshold; pKd (GORASP1, Q9BQQ3): below the threshold; pKd (ARHGEF11, O15085): below the threshold; pKd (GOPC, Q9HD26): below the threshold |

The next lines start with results.

| pKd (GIPC2, Q8TF65) | pKd (MAGI2_4, Q86UL8) | pKd (PDZRN3_1, Q9UPQ7) | pKd (SIPA1L2, Q9P2F8) | pKd (GRID2IP_1, A4D2P6) | pKd (SNTA1, Q13424) | pKd (GRIP2_5, Q9C0E4) | pKd (FRMPD4, Q14CM0) | pKd (GRIP1_3, Q9Y3R0) | pKd (LIN7B, Q9HAP6) | pKd (GRIP1_4, Q9Y3R0) | pKd (DFNB31_1, Q9P202) | pKd (NHERF4_2, Q86UT5) | pKd (DFNB31_3, Q9P202) | pKd (DLG3_3, Q92796) | pKd (Inadl_2, Q8NI35) | pKd (MPP7, Q5T2T1) | pKd (LIN7C, Q9NUP9) | pKd (HTRA3, P83110) | pKd (CASK, O14936) | Binder | also measured |
| --- | --- | --- | --- | --- | --- | --- | --- | --- | --- | --- | --- | --- | --- | --- | --- | --- | --- | --- | --- | --- | --- |
| below the threshold | 4.07 | below the threshold | below the threshold | below the threshold | 3.76 | below the threshold | below the threshold | below the threshold | below the threshold | below the threshold | 3.48 | below the threshold | 4.79 | below the threshold | 4.3 | below the threshold | 4.11 | 3.71 | below the threshold | KIEDVEITLV [FCHSD2, O94868] | pKd (DLG4_2, P78352): 4.2; pKd (GORASP2, Q9H8Y8): 4.01; pKd (GORASP1, Q9BQQ3): 3.91; pKd (ARHGEF11, O15085): 4.42; pKd (GOPC, Q9HD26): 4.09 |
| below the threshold | below the threshold | below the threshold | below the threshold | below the threshold | below the threshold | below the threshold | below the threshold | below the threshold | 3.81 | below the threshold | below the threshold | below the threshold | below the threshold | below the threshold | below the threshold | below the threshold | below the threshold | 4.61 | below the threshold | MQILSKPEFI [NPSR1, Q6W5P4] | pKd (DLG4_2, P78352): below the threshold; pKd (GORASP2, Q9H8Y8): 4.61; pKd (GORASP1, Q9BQQ3): 4.15; pKd (ARHGEF11, O15085): below the threshold; pKd (GOPC, Q9HD26): below the threshold |
| 4.2 | 4.07 | 3.52 | below the threshold | below the threshold | 4.6 | below the threshold | 3.55 | below the threshold | 3.96 | below the threshold | 4.46 | below the threshold | 3.99 | below the threshold | 4.17 | 3.57 | 3.77 | 5.59 | below the threshold | PLPPEEESWV [GAS2L2, Q8NHY3] | pKd (DLG4_2, P78352): 4.69; pKd (GORASP2, Q9H8Y8): 4.48; pKd (GORASP1, Q9BQQ3): 4.22; pKd (ARHGEF11, O15085): 4.46; pKd (GOPC, Q9HD26): below the threshold |
